Laboratory results from patent US20100311605A1, “SENSING PLATFORM” (NATIONAL CHIAO TUNG UNIVERSITY, priority 2009, published 2010).

T1: MMP-2 (Homo sapiens, UniProt P08253)
T1 construct: purchased Sigma-Aldrich, USA
T1 sequence (P08253 110-660): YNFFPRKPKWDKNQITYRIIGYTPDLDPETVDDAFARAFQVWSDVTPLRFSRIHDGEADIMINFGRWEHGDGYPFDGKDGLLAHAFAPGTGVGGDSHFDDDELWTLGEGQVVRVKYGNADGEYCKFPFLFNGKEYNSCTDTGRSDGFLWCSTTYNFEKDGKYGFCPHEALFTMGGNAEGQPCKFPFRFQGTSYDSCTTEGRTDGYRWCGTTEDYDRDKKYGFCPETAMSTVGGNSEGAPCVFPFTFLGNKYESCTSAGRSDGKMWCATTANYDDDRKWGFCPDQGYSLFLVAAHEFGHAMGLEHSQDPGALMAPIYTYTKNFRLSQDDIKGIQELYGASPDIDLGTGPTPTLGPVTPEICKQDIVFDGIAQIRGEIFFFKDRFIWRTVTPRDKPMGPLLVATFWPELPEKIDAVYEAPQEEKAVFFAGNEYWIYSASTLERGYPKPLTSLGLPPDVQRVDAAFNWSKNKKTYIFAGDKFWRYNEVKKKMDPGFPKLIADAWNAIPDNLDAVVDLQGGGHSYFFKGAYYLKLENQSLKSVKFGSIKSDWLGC


Key:
MMP-2 [1] = target: T1, MMP-2; experiment: Test of MMP-2 suppressor activity and specificity with AuNPs/MCH-gelatin sensing platform; assay type: biochemical; conditions: 37° C., 30 minutes; for suppression of MMP-2 activity (ratios A625/A525 versus control group): suppressor solution 10 mM, 0.5 μL MMP-2 (100 ng/μL), FIG. 6
Protocol: Buffer solutions containing different concentrations of ONO-4817 were added respectively into the solution of AuNPs/MCH-gelatin in a cuvette, and the concentrations of the solutions of AuNPs/MCH-gelatin were adjusted to give an OD525=1.
(§1) Then, a solution of a highly concentrated proteinase suppressor ONO-4817 or A1AT (10 mM) was added to give a mixture. The mixture was placed in a water bath at 37° C. for 30 minutes to allow the reaction. A change in wavelength was measured by a spectrophotometer, and the ratios (A625/A525) of the values measured at wavelengths of 625 nm and 525 nm were calculated.

trypsin = experiment: Specificity test of proteinase suppressors with AuNPs/MCH-gelatin sensing platform, trypsin; assay type: biochemical; conditions: suppressor solution 10 mM; 0.5 μL trypsin (100 ng/μL); 37° C., 30 minutes; FIG. 6
Protocol: as §1

MMP-2 [2] = target: T1, MMP-2; conditions: read-out: enzyme inhibition constant (Ki); cited from earlier work
AuNPs/MCH-gelatin = experiment: Activity test of proteinase (trypsin) on AuNPs/MCH-gelatin; assay type: biochemical; conditions: 37° C., 10 minutes
Source text: Different concentrations of trypsin were used for detection.
Ratios (A625/A525) of the measured values at wavelengths of 625 nm and 525 nm are used as a basis for detection, so as to correct the error of waveform overlapping caused by changes to the sizes of the AuNPs. The ratios (A625/A525) of the groups are in the following: 0.2127 for A, 0.2131 for B, 0.2134 for C, 0.2554 for D, 0.4236 for E, 0.5674 for F, 0.6114 for G and 0.6484 for H. The ratios and the trypsin concentrations are shown in FIG. 3I, wherein when the trypsin concentrations are from 1.25×10^−1 U to 1.25×10^2 U, the wavelength changes and the trypsin concentrations are positively associated.

Row | Molecule | suppression of MMP-2 activity (ratios A625/A525 versus control group) (MMP-2 [1]) | suppression of trypsin activity (ratios A625/A525 versus control group) (trypsin) | suppression of MMP-2 activity (waveform change, A625/A525) (MMP-2 [1]; different concentrations of ONO-4817 (0.0125 to 512 nM), 0.5 μL MMP-2 (100 ng/μL) in 200 μL AuNPs/MCH-gelatin, FIG. 5) | Ki (MMP-2 [2]) [nM] | ratio A625/A525 (AuNPs/MCH-gelatin; group B, 1.25×10^−3 U of trypsin) | ratio A625/A525 (AuNPs/MCH-gelatin; group C, 1.25×10^−2 U of trypsin) | ratio A625/A525 (AuNPs/MCH-gelatin; group D, 1.25×10^−1 U of trypsin) | ratio A625/A525 (AuNPs/MCH-gelatin; group E, 1.25×10^0 U of trypsin) | ratio A625/A525 (AuNPs/MCH-gelatin; group F, 1.25×10^1 U of trypsin) | ratio A625/A525 (AuNPs/MCH-gelatin; group G, 1.25×10^2 U of trypsin) | ratio A625/A525 (AuNPs/MCH-gelatin; group H, 1.25×10^3 U of trypsin)
1 | A1AT: trypsin suppressor; cannot suppress the activity of MMPs | not suppressed | can effectively suppress the activity of trypsin | – | – | – | – | – | – | – | – | –
2 | CCOCOC[C@H](C[C@H](C)C(=O)NO)NC(=O)c1ccc(Oc2ccccc2)cc1 [ONO-4817] | can suppress the activity of MMP-2 | significantly increase | can suppress the activity of MMP-2 | 0.72 | – | – | – | – | – | – | –
3 | trypsin: proteinase detected by the sensing platform (protein, UniProt P00760 24-246, looked up) Serine protease 1: IVGGYTCGANTVPYQVSLNSGYHFCGGSLINSQWVVSAAHCYKSGIQVRLGEDNINVVEGNEQFISASKSIVHPSYNSNTLNNDIMLIKLKSAASLNSRVASISLPTSCASAGTQCLISGWGNTKSSGTSYPDVLKCLKAPILSDSSCKSAYPGQITSNMFCAGYLEGGKDSCQGDSGGPVVCSGKLQGIVSWGSGCAQKNKPGVYTKVCNYVSWIKQTIASN | – | – | – | – | 0.2131 | 0.2134 | 0.2554 | 0.4236 | 0.5674 | 0.6114 | 0.6484
